One may read the Kd as the free concentration of one partner at which half of the binding sites on the other are occupied at equilibrium, for simple one-to-one binding. A higher Kd goes with weaker binding.

We go through 4 molecules from PMC4385471 (Molecular cell, 2015).

Sequences and labels used below:
B1: MBP-GGA1(76-215) (domain or fragment, UniProt Q9UJY5 76-215, looked up)
chain: SCGKRFHDEVGKFRFLNELIKVVSPKYLGSRTSEKVKNKILELLYSWTVGLPEEVKIAEAYQMLKKQGIVKSDPKLPDDTTFPLPPPRPKNVIFEDEEKSKMLARLLKSSHPEDLRAANKLIKEMVQEDQKRMEKISKRV
B2: GST-ARF5Δ17 (domain or fragment)
chain: not shown
B3: GST-ARF6Δ13 (domain or fragment, UniProt P62330 14-175, looked up)
chain: MRILMLGLDAAGKTTILYKLKLGQSVTTIPTVGFNVETVTYKNVKFNVWDVGGQDKIRPLWRHYYTGTQGLIFVVDCADRDRIDEARQELHRIINDREMRDAIILIFANKQDLPDAMKPHEIQEKLGLTRIRDRNWYVQPSCATSGDGLYEGLTWLTSNYKS
B4: Glutathione S-transferase (GST) tagged ARF1ΔN17 (domain or fragment)
chain: not shown

Assay [1] concerns the target B4. Nature of the assay: homologous competition assay.
Assay [2] deals with T1, Maltose Binding Protein (MBP) tagged IpaJΔ50 (Shigella flexneri, UniProt Q54150 51-259).
T1 sequence: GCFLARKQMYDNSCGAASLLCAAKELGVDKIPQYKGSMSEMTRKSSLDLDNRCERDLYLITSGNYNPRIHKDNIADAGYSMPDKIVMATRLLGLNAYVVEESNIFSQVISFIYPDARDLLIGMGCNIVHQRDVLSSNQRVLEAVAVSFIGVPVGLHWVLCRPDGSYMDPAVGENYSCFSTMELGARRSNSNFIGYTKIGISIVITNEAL
Nature of the assay: pull-down.

In assay [3] the target is T1, Maltose Binding Protein (MBP) tagged …. The assay can be described thus: homologous competition assay.

B1 returned a Kd in assay [1] of 1810 nM.
Regarding B2, in assay [2], the binding result was “binds”.
As to B3, the binding result in assay [2] is recorded as “binds”.
On to B4, for which the Kd in assay [3] stood at 280 nM.
